Results as given in PMC8280356, “Purification and Characterization of Nit_(phym), a Robust Thermostable Nitrilase From Paraburkholderia phymatum” (Frontiers in Bioengineering and Biotechnology, 2021).

Biological target: the molecule itself
Assay: SEC; analytical gel filtration on Superdex 200 Increase 10/300 GL; 100 uL of purified protein at 3.9 mg/mL; mobile phase 50 mM Tris-HCl pH 8.0, 0.15 mM NaCl, 10% glycerol, 0.3 mL/min; elution volume compared to a calibration curve of proteins of known molecular weight

B1: Nit_(phym), nitrilase from Paraburkholderia phymatum DSM 17167 (enzyme, UniProt B2JQY2 1-340, looked up)
chain: MSDQRVIRAAAVQIAPDFERPGGTLDRVCAAIDEAASKGVQLIVFPETFVPYYPYFSFVRPPVASGADHMRLYEQAVVVPGPVTHAVSERARRHAMVVVLGVNERDHGSLYNTQLVFDIDGCQVLKRRKITPTFHERMIWGQGDAAGLKVARTGIARVGALACWEHYNPLARYALMTQHEEIHCSQFPGSLVGPIFAEQIEVTIRHHALESGCFVVNSTGWLSDAQIESVTTDPKLQKALRGGCMTAIVSPEGQHLAEPLREGEGMVVADLDMALITKRKRMMDSVGHYARPELLSLAINDRPAMPVVPMSMSFERAGADVAPEIISGGQDECQHEPVAG
notes: nitrilase Nit_(phym) (NIT188) from Paraburkholderia phymatum DSM 17167, Uniprot ID B2JQY2; subunit with an apparent molecular mass of 37 kDa on SDS-PAGE; also called NIT188
B1 was tested, and the “stoichiometry N” value was > 18 subunits.
